Laboratory results reported in patent US20150368338A1 (Janssen / Centocor, published 2015).

T1: IFN-αF (human, UniProt P01568 24-189)
T1 construct: also called IFN-α21; alpha F
T1 chain: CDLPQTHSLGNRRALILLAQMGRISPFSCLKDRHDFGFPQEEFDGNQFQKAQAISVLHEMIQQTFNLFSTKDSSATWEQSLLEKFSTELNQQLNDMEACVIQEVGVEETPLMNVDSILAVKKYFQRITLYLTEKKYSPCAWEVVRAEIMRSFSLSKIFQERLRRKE


Experiments:
Experiment in all cases: ProteOn, one antigen concentration
IFN-αJ1 = molecular target: T2, IFN-αJ1 (human, UniProt P01567 24-189)
T2 construct: also called IFN-α7; alpha J1
From the text: (§1) To increase the assay throughput, only one concentration of the individual antigen was used.

IFN-αC = molecular target: T3, IFN-αC (human, UniProt P01566 24-189)
T3 construct: also called IFN-α10; alpha C
From the text: as §1

IFN-αF = molecular target: T1, IFN-αF
From the text: as §1

human IFN-ω = molecular target: T4, human IFN-ω (human, UniProt P05000 24-195)
T4 construct: also called interferon omega
From the text: as §1

IFN-αWA = molecular target: T5, IFN-αWA (human, UniProt P05015 24-189)
T5 construct: also called IFN-α16; alpha WA
From the text: as §1

IFN-α4a = molecular target: T6, IFN-α4a (human, UniProt P05014 24-189)
T6 construct: also called IFN-αM1
From the text: as §1

IFN-αG = molecular target: T7, IFN-αG (human, UniProt P01569 24-189)
T7 construct: also called IFN-α5; alpha G
From the text: as §1

Row | Binder | Kd (IFN-αJ1) [nM] | Kd (IFN-αC) [nM] | Kd (IFN-αF) [nM] | Kd (human IFN-ω) [nM] | Kd (IFN-αWA) [nM] | Kd (IFN-α4a) [nM] | Kd (IFN-αG) [nM]
1 | IFWM3322 (antibody, V domains shown, VH IFWH591, VL IFWL1051; converted mAb; also called IFWB3057) VH: EVQLVQSGAEVKKPGESLKISCKGSGYSFTSYWIGWVRQMPGKGLEWMGIIDPSDSDTRYSPSFQGQVTISADKSISTAYLQWSSLKASDTAMYYCARHPGLNWAPDFDYWGQGTLVTVSS VL: DIQMTQSPSSLSASVGDRVTITCRASQSIADFLNWYQQKPGKAPKLLIYFASSLQSGVPSRFSGSGSGTDFTLTISSLQPEDFATYYCQQSHSFPLTFGQGTKVEIK | 0.127 | 0.042 | 0.033 | 0.04 | 0.086 | 0.272 | 0.058
2 | IFWM3349 (antibody, V domains shown, VH IFWH624, VL IFWL1007; converted mAb; also called IFWB3084) VH: EVQLVQSGAEVKKPGESLKISCKGSGYSFTSYWIGWVRQMPGKGLEWMGIIDPSDSDTAYSPSFQGQVTISADKSISTAYLQWSSLKASDTAMYYCARHPGLNWAPDFDYWGQGTLVTVSS VL: DIQMTQSPSSLSASVGDRVTITCRASQSIGKSLNWYQQKPGKAPKLLIYFASSLQSGVPSRFSGSGSGTDFTLTISSLQPEDFATYYCQQSYDFPLTFGQGTKVEIK | 0.123 | 0.056 | 0.052 | 0.007 | 0.102 | 0.174 | 0.065
3 | IFWM3347 (antibody, V domains shown, VH IFWH624, VL IFWL1004; converted mAb; also called IFWB3082) VH: EVQLVQSGAEVKKPGESLKISCKGSGYSFTSYWIGWVRQMPGKGLEWMGIIDPSDSDTAYSPSFQGQVTISADKSISTAYLQWSSLKASDTAMYYCARHPGLNWAPDFDYWGQGTLVTVSS VL: DIQMTQSPSSLSASVGDRVTITCRASQSIAEFLNWYQQKPGKAPKLLIYFASSLQSGVPSRFSGSGSGTDFTLTISSLQPEDFATYYCQQSIDFPLTFGQGTKVEIK | 0.411 | 0.096 | 0.136 | 0.048 | 0.125 | 0.35 | 0.084
4 | IFWM3325 (antibody, V domains shown, VH IFWH591, VL IFWL1060; converted mAb; also called IFWB3060) VH: EVQLVQSGAEVKKPGESLKISCKGSGYSFTSYWIGWVRQMPGKGLEWMGIIDPSDSDTRYSPSFQGQVTISADKSISTAYLQWSSLKASDTAMYYCARHPGLNWAPDFDYWGQGTLVTVSS VL: DIQMTQSPSSLSASVGDRVTITCRASQSIRNSLNWYQQKPGKAPKLLIKWASSLQSGVPSRFSGSGSGTDFTLTISSLQPEDFATYYCQQLYDWPLTFGQGTKVEIK | 0.092 | 0.022 | 0.032 | 0.011 | 0.091 | 0.111 | 0.033
5 | IFWM3345 (antibody, V domains shown, VH IFWH624, VL IFWL1000; converted mAb; also called IFWB3080) VH: EVQLVQSGAEVKKPGESLKISCKGSGYSFTSYWIGWVRQMPGKGLEWMGIIDPSDSDTAYSPSFQGQVTISADKSISTAYLQWSSLKASDTAMYYCARHPGLNWAPDFDYWGQGTLVTVSS VL: DIQMTQSPSSLSASVGDRVTITCRASQSITNFLNWYQQKPGKAPKLLIYFASSLQSGVPSRFSGSGSGTDFTLTISSLQPEDFATYYCQQSLDFPLTFGQGTKVEIK | 0.169 | 0.072 | 0.12 | 0.004 | 0.111 | 0.324 | 0.092
6 | IFWM3346 (antibody, V domains shown, VH IFWH624, VL IFWL1001; converted mAb; also called IFWB3081) VH: EVQLVQSGAEVKKPGESLKISCKGSGYSFTSYWIGWVRQMPGKGLEWMGIIDPSDSDTAYSPSFQGQVTISADKSISTAYLQWSSLKASDTAMYYCARHPGLNWAPDFDYWGQGTLVTVSS VL: DIQMTQSPSSLSASVGDRVTITCRASQSIGDFLNWYQQKPGKAPKLLIYFASSLQSGVPSRFSGSGSGTDFTLTISSLQPEDFATYYCQQALDFPLTFGQGTKVEIK | 0.505 | 0.105 | 0.117 | 0.052 | 0.17 | 0.48 | 0.086
7 | IFWM3340 (antibody, V domains shown, VH IFWH624, VL IFWL983; converted mAb; also called IFWB3075) VH: EVQLVQSGAEVKKPGESLKISCKGSGYSFTSYWIGWVRQMPGKGLEWMGIIDPSDSDTAYSPSFQGQVTISADKSISTAYLQWSSLKASDTAMYYCARHPGLNWAPDFDYWGQGTLVTVSS VL: DIQMTQSPSSLSASVGDRVTITCRASQSIDGSLNWYQQKPGKAPKLLIYFASSLQSGVPSRFSGSGSGTDFTLTISSLQPEDFATYYCQQSYDFPLTFGQGTKVEIK | 0.124 | 0.048 | 0.041 | 0.004 | 0.056 | 0.201 | 0.024
8 | IFWM3352 (antibody, V domains shown, VH IFWH624, VL IFWL1013; converted mAb; also called IFWB3087) VH: EVQLVQSGAEVKKPGESLKISCKGSGYSFTSYWIGWVRQMPGKGLEWMGIIDPSDSDTAYSPSFQGQVTISADKSISTAYLQWSSLKASDTAMYYCARHPGLNWAPDFDYWGQGTLVTVSS VL: DIQMTQSPSSLSASVGDRVTITCRASQSINNFLNWYQQKPGKAPKLLIYFASSLQSGVPSRFSGSGSGTDFTLTISSLQPEDFATYYCQQSFNLPITFGQGTKVEIK | 0.287 | 0.121 | 0.152 | 0.06 | 0.087 | 0.267 | 0.09
9 | IFWM3348 (antibody, V domains shown, VH IFWH624, VL IFWL1006; converted mAb; also called IFWB3083) VH: EVQLVQSGAEVKKPGESLKISCKGSGYSFTSYWIGWVRQMPGKGLEWMGIIDPSDSDTAYSPSFQGQVTISADKSISTAYLQWSSLKASDTAMYYCARHPGLNWAPDFDYWGQGTLVTVSS VL: DIQMTQSPSSLSASVGDRVTITCRASQSIGGFLNWYQQKPGKAPKLLIYFASSLQSGVPSRFSGSGSGTDFTLTISSLQPEDFATYYCQQSYSLPITFGQGTKVEIK | 0.164 | 0.083 | 0.064 | 0.05 | 0.049 | 0.089 | 0.02
10 | IFWM3341 (antibody, V domains shown, VH IFWH624, VL IFWL991; converted mAb; also called IFWB3076) VH: EVQLVQSGAEVKKPGESLKISCKGSGYSFTSYWIGWVRQMPGKGLEWMGIIDPSDSDTAYSPSFQGQVTISADKSISTAYLQWSSLKASDTAMYYCARHPGLNWAPDFDYWGQGTLVTVSS VL: DIQMTQSPSSLSASVGDRVTITCRASQSINRFLNWYQQKPGKAPKLLIYAASSLQSGVPSRFSGSGSGTDFTLTISSLQPEDFATYYCQQAIDLPFTFGQGTKVEIK | 0.275 | 0.104 | 0.088 | 0.008 | 0.134 | 0.445 | 0.063
11 | IFWM3351 (antibody, V domains shown, VH IFWH624, VL IFWL1010; converted mAb; also called IFWB3086) VH: EVQLVQSGAEVKKPGESLKISCKGSGYSFTSYWIGWVRQMPGKGLEWMGIIDPSDSDTAYSPSFQGQVTISADKSISTAYLQWSSLKASDTAMYYCARHPGLNWAPDFDYWGQGTLVTVSS VL: DIQMTQSPSSLSASVGDRVTITCRASQSIDGALNWYQQKPGKAPKLLIYFASSLQSGVPSRFSGSGSGTDFTLTISSLQPEDFATYYCQQSFDFPLTFGQGTKVEIK | 0.14 | 0.048 | 0.053 | 0.004 | 0.033 | 0.113 | 0.015
12 | IFWM3342 (antibody, V domains shown, VH IFWH624, VL IFWL992; converted mAb; also called IFWB3077) VH: EVQLVQSGAEVKKPGESLKISCKGSGYSFTSYWIGWVRQMPGKGLEWMGIIDPSDSDTAYSPSFQGQVTISADKSISTAYLQWSSLKASDTAMYYCARHPGLNWAPDFDYWGQGTLVTVSS VL: DIQMTQSPSSLSASVGDRVTITCRASQSIGSFLNWYQQKPGKAPKLLIYFASSLQSGVPSRFSGSGSGTDFTLTISSLQPEDFATYYCQQSYSIPITFGQGTKVEIK | 0.269 | 0.142 | 0.164 | 0.068 | 0.095 | 0.589 | 0.014
13 | IFWM3343 (antibody, V domains shown, VH IFWH624, VL IFWL997; converted mAb; also called IFWB3078) VH: EVQLVQSGAEVKKPGESLKISCKGSGYSFTSYWIGWVRQMPGKGLEWMGIIDPSDSDTAYSPSFQGQVTISADKSISTAYLQWSSLKASDTAMYYCARHPGLNWAPDFDYWGQGTLVTVSS VL: DIQMTQSPSSLSASVGDRVTITCRASQSIGSALNWYQQKPGKAPKLLIYFASSLQSGVPSRFSGSGSGTDFTLTISSLQPEDFATYYCQQSYDFPLTFGQGTKVEIK | 0.157 | 0.065 | 0.063 | 0.02 | 0.083 | 0.237 | 0.06
14 | IFWM3344 (antibody, V domains shown, VH IFWH624, VL IFWL998; converted mAb; also called IFWB3079) VH: EVQLVQSGAEVKKPGESLKISCKGSGYSFTSYWIGWVRQMPGKGLEWMGIIDPSDSDTAYSPSFQGQVTISADKSISTAYLQWSSLKASDTAMYYCARHPGLNWAPDFDYWGQGTLVTVSS VL: DIQMTQSPSSLSASVGDRVTITCRASQSISKFLNWYQQKPGKAPKLLIYFASSLQSGVPSRFSGSGSGTDFTLTISSLQPEDFATYYCQQSNTLPFTFGQGTKVEIK | 0.274 | 0.161 | 0.14 | 0.078 | 0.105 | 0.442 | 0.112
15 | IFWM3350 (antibody, V domains shown, VH IFWH624, VL IFWL1009; converted mAb; also called IFWB3085) VH: EVQLVQSGAEVKKPGESLKISCKGSGYSFTSYWIGWVRQMPGKGLEWMGIIDPSDSDTAYSPSFQGQVTISADKSISTAYLQWSSLKASDTAMYYCARHPGLNWAPDFDYWGQGTLVTVSS VL: DIQMTQSPSSLSASVGDRVTITCRASQSIDDFLNWYQQKPGKAPKLLIYFASSLQSGVPSRFSGSGSGTDFTLTISSLQPEDFATYYCQQSHTLPLTFGQGTKVEIK | 0.055 | 0.057 | 0.054 | 0.02 | 0.066 | 0.161 | 0.098
